Test results as given in patent publication US12686704B2, “Procoagulant peptides and use thereof” (RAMBAM MED-TECH LTD., priority 2021, dated 2026).
Where no end group is shown, it is not given here.

Key:
[1] = test system: Hemophilic mice (VIII-KO mice); experiment: Mouse-tail bleeding time model in hemophilic mice; type: in vivo; conditions: subcutaneous 150-375 μg/kg; FIG. 3D
Procedure: FIGS. 3A-3D include vertical bar graphs showing that modified heparanase procoagulant peptides of the invention decrease bleeding in hemophilic mice. Hemophilic mice (VIII-KO mice; C57BL/6 background, strain name B6;129S4-F8tm1Kaz/J) were studied. (3A) Peptides 16 or 16AC were injected subcutaneously at the flank in doses 150, 225, 300, 375 μg/kg. A mouse-tail bleeding time model was performed. The peptides were dissolved in phosphate-buffered saline (PBS). Control (0) group was injected with the vehicle phosphate buffered saline (PBS). (3D) is identical to (3A) with the exception that peptide 16 C […] and peptide 16A […] were also administered in the disclosed doses. In a similar study, the peptides were topically applied on the tail immediately following the incision of the tail at a rate of a drop every 5 seconds (3B). […] Mann-Whitney U test was used. Results represent mean±SD. *p<0.05.
Hemophilic mice (VIII-KO mice; C57BL/6 background, strain name B6;129S4-F8tm1Kaz/J) were studied. Peptides 16 or 16AC were injected sub-cutis at the flank in doses 150, 225, 300, 375 μg/kg. A mouse-tail bleeding time model was performed. The peptides were dissolved in phosphate-buffered saline (PBS). Control (0) group was injected with the vehicle phosphate buffered saline (PBS) (FIGS. 3A and 3D). In a similar study, the peptides were topically applied on the tail immediately following the incision of the tail at a rate of a drop every 5 seconds (FIG. 3B).

[2] = target: lipidated TF, factor VIIa, factor X (Homo sapiens, UniProt P13726); experiment: Factor X activation assay of purified proteins (chromogenic substrate); type: biochemical; conditions: peptides at 5 μg/ml and 10 μg/ml; compared to control; FIG. 1A
Procedure: FIGS. 1A-1C include vertical bar graphs and thromboelastography (TEG) curves, showing that peptide 16 and peptide 16AC increase coagulation. Peptide 16 and 16AC were studied in an assay of purified proteins that included lipidated TF (4 nM), factor VIIa (40 nM), factor X (1.4 μM) and assay buffer. Factor X activated form (Xa) level was studied using a chromogenic substrate (1 mM). […] Bovine factor Xa diluted in the assay buffer was used to generate a standard curve. Without addition of TF (two right columns), no factor Xa was generated. […] (1B) A citrated pooled normal human blood sample (n=3) was left for 4 hours at room temperature in order to expose TF in bloods cells. Following this period, the peptides 16 and 16AC were added (5 μg/ml) along with calcium. […] Representative TEG curves are shown. (1C) The study presented in FIG. 1B was repeated 3 times with different pooled plasma. […] Peptide 16 (non-modified); peptide 16 comprising a C-terminal amid group (16A); peptide 16 comprising an N-terminal acetyl group (16C); and peptide 16 comprising a C-terminal amid group and an N-terminal acetyl group (16AC). In 1B: for control—SP min=11.2; R min=12.8; K min=3.8, Angle deg=52.0; and MA mm=47.9, for Peptide 16—SP min=5.2; R min=6.4; K min=2.8, Angle deg=63.3; and MA mm=50.4, and for Peptide 16AC—SP min=4.7; R min=5.6; K min=2.5, Angle deg=63.1; and MA mm=53.8.
Peptides 16, 16C, 16A and 16AC were studied in an assay of purified proteins that included lipidated TF (0.004 μM), factor VIIa (0.04 μM), factor X (1.4 μM) and assay buffer. Factor X activated form (Xa) level was studied using a chromogenic substrate (1 mM). […] Bovine factor Xa diluted in the assay buffer was used to generate a standard curve. Without addition of TF (two right columns), no factor Xa was generated.

Sequence of lipidated TF, factor VIIa, factor X (P13726 33-295): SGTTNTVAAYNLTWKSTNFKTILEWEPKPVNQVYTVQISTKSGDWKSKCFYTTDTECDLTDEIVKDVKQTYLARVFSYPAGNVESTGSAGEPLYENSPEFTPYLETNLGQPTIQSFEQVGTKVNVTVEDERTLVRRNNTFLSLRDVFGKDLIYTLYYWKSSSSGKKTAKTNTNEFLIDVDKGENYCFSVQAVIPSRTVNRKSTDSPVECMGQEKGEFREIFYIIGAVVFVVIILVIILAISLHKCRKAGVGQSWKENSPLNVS
Sequence of lipidated TF, factor VIIa, factor X (P08709 61-212 partner limits assumed): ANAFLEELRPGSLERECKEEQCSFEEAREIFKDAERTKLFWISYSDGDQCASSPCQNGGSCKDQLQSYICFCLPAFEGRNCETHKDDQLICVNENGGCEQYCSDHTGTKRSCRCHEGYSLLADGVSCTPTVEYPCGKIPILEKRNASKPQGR
Sequence of lipidated TF, factor VIIa, factor X (P08709 213-466 partner limits assumed): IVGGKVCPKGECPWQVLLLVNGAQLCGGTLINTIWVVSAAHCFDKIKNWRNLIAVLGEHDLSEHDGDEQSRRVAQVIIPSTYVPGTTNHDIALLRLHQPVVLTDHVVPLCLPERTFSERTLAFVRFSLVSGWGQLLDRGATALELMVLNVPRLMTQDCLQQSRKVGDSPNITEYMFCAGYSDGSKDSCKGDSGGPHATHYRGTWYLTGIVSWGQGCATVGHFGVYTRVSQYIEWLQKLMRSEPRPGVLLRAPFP

Row | Substance | bleeding time reduction, comparison between peptides [1] | activation of factor X (factor Xa level) [2]
1 | GSKRRKLRVYLHCT-amid (GSKRRKLRVYLHCT-NH2) [Peptide 16A, peptide 16 comprising a C-terminal amid group] | significant better effect to reduce the bleeding time compared to peptide 16 and peptide 16C | significantly increased activation of factor X compared to control
2 | acetyl-GSKRRKLRVYLHCT (Ac-GSKRRKLRVYLHCT) [Peptide 16C, peptide 16 comprising an N-terminal acetyl group] |  | significantly increased activation of factor X compared to control
